Measurements reported in paper PMC7094404 (Archives of Biochemistry and Biophysics, 2008).

Biological target: the molecule itself
Assay: AUC

B1: SARS-CoV main protease, full-length wild type, C-terminal His6 (enzyme)
chain: SGFRKMAFPSGKVEGCMVQVTCGTTTLNGLWLDDTVYCPRHVICTAEDMLNPNYEDLLIRKSNHSFLVQAGNVQLRVIGHSMQNCLLRLKVDTSNPKTPKYKFVRIQPGQTFSVLACYNGSPSGVYQCAMRPNHTIKGSFLNGSCGSVGFNIDYDCVSFCYMHHMELPTGVHAGTDLEGKFYGPFVDRQTAQAAGTDTTITLNVLAWLYAAVINGDRWFLNRFTTTLNDFNLVAMKYNYEPLTQDHVDILGPLSAQTGIAVLDMCAALKELLQNGMNGRTILGSTILEDEFTPFDVVRQCSGVTFQ
Protein B1 has a Kd of 0.08 ± 0.005 µM and a koff of 0.01 ± 0.001 s⁻¹.
